Experimental data published in patent publication US6132722A, “Recombinant antibody-enzyme fusion proteins” (Bristol-Myers Squibb Company, priority 1998, dated 2000).

System: cell-surface antigens on SK-MEL 28 melanoma cells
Assay: Fluorescence activated cell sorting competition binding assay against FITC-modified whole L49
Set-up: species or system human
Conditions: FACS competition assay
Method: FIG. 7 depicts a competition binding assay. 3677 cells were incubated with various combinations of the test samples (L49, L49-sFv-bL, L49-Fab'-bL, and FITC-modified whole L49, keeping the total mAb concentration (test sample+L49-FITC) constant at 400 nM. Fluorescence intensity was determined by fluorescence activated cell sorter analysis.
Competition binding experiments were performed as described by Svensson et al.(Bioconjugate Chem., 3:176-181 (1992)). Immunoassays were performed by coating polystyrene 96 well plates with sp97 (0.1 mL, 2 μg/ml in PBS, overnight, 4° C.) After blocking with specimen diluent (Genetic Systems Corp.) for 1 h at 22° C., the blocking solution was replaced with fresh specimen diluent (0.1 ml) containing serial dilutions of the samples. After 1 h at 22° C. the plates were washed, followed by development with 0.1 mL of a nitrocefin (O'Callaghan et al., Antimicrobial Agents and Chemotherapy, 1:283-288 (1972)) solution (0.1 mM in PBS/1% dimethylformamide, 15 min, 22° C. Absorbance measurements were read in an plate reader using a 490 nm filter with 630 nm as the reference wavelength.
The binding characteristics of the sFv portion of the fusion protein were determined using a fluorescent activated cell sorting competition assay in which fusion protein and FITC-modified whole L49 competed for binding to cell-surface antigens on SK-MEL 28 melanoma cells. […]

B1: L49-sFv-bL: recombinant fusion protein: L49 anti-p97 single-chain Fv (VH-218 linker-VL) fused to r2-1 mutant E. cloacae β-lactamase, SEQ ID NO: 20 (protein)
chain: MKYLLPTAAAGLLLLAAQPAMAEVQLQESGPSLVKPSQTLSLTCSVTGDSITSGYWNWIRKFPGNKLEYMGYISDSGITYYNPSLKSRISITRDTSKNQYYLQLNFVTAEDTATYNCARRTLATYYAMDYWGQGTSVTVSSGSTSGSGKPGSGEGSTKGDFVMTQTPLSLPVSLGDQASISCRASQSLVHSNGNTYLHWYLQKPGQSPKLLIYRVSNRFSGVPDRFSGSGSGTDFTLKISRVEAEDLGVYFCSQSTHVPPTFGGGTKLEIKRTPVSEKQLAEVVANTITPLMKAQSVPGMAVAVIYQGKPHYYTFGKADIAANKPVTPQTLFELGSISKTFTGVLGGDAIARGEISLDDAVTRYWPQLTGKQWQGIRMLDLATYTAGGLPLQVPDEVTDNASLLRFYQNWQPQWKPGTTRLYANASIGLFGALAVKPSGMPYEQAMTTRVLKPLKLDHTWINVPKAEEAHYAWGYRDGKAVRVSPGMLDAQAYGVKTNVQDMANWVMANMAPENVADASLKQGIALAQSRYWRIGSMYQGLGWEMLNWPVEANTVVETSFGNVALAPLPVAEVNPPAPPVKASWVHKTGSTGGFGSYVAFIPEKQIGIVMLANTSYPNPARVEAAYHILEALQTSEFE
  binding to the cell line in competition with FITC-modified whole L49: bound equally well
